The record followed here is the supplement of paper PMC5998384.

For data set [1], the system named is HeLa Kyoto. The experiment in a line: solubility in G1/S (NP-40 vs SDS abundance) (log2 ratio); higher = more soluble. As to conditions: cell cycle stage: G1/S.
Data set [2] concerns HeLa Kyoto. The experiment in a line: solubility change mitosis vs G1/S (difference of NP-40 vs SDS log2 ratios) (log2 ratio difference); higher = more soluble in mitosis.
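For solubility change mitosis vs G1/S (difference of NP-40 vs SDS log2 ratios) in this document: synchronized HeLa Kyoto cells (double thymidine block for G1/S, nocodazole release for mitosis), protein amounts in NP-40 versus SDS lysates quantified by mass spectrometry, three biological replicates.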
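For solubility in G1/S (NP-40 vs SDS abundance) in this document: HeLa Kyoto cells arrested at G1/S by double thymidine block, proteins quantified by TMT10plex mass spectrometry in mild NP-40 versus SDS extracts, three biological replicates.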

Take “MGHPPLEFSDCYLDSPDFRERLKCYEQELERTNKFIKDVIKDGNALISAMRNYSSAVQKFSQTLQSFQFDFIGDTLTDDEINIAESFKEFAELLNEVENERMMMVHNASDLLIKPLENFRKEQIGFTKERKKKFEKDGERFYSLLDRHLHLSSKKKESQLQEADLQVDKERHNFFESSLDYVYQIQEVQESKKFNIVEPVLAFLHSLFISNSLTVELTQDFLPYKQQLQLSLQNTRNHFSSTREEMEELKKRMKEAPQTCKLPGQPTIEGYLYTQEKWALGISWVKYYCQYEKETKTLTMTPMEQKPGAKQGPLDLTLKYCVRRKTESIDKRFCFDIETNERPGTITLQALSEANRRLWMEAMDGKEPIYHSPITKQQEMELNEVGFKFVRKCINIIETKGIKTEGLYRTVGSNIQVQKLLNAFFDPKCPGDVDFHNSDWDIKTITSSLKFYLRNLSEPVMTYRLHKELVSAAKSDNLDYRLGAIHSLVYKLPEKNREMLELLIRHLVNVCEHSKENLMTPSNMGVIFGPTLMRAQEDTVAAMMNIKFQNIVVEILIEHFGKIYLGPPEESAAPPVPPPRVTARRHKPITISKRLLRERTVFYTSSLDESEDEIQHQTPNGTITSSIEPPKPPQHPKLPIQRSGETDPGRKSPSRPILDGKLEPCPEVDVGKLVSRLQDGGTKITPKATNGPMPGSGPTKTPSFHIKRPAPRPLAHHKEGDADSFSKVRPPGEKPTIIRPPVRPPDPPCRAATPQKPEPKPDIVAGNAGEITSSVVASRTRFFETASRKTGSSQGRLPGDES [OPHN1]”: the “solubility in G1/S (log2)” value in the data set with HeLa Kyoto [1] was -0.348. Also, the “solubility change mitosis (log2)” value in the data set with HeLa Kyoto [2] was -0.0995.
Taken in the same sequence, the figures for “MGIQGLLQFIKEASEPIHVRKYKGQVVAVDTYCWLHKGAIACAEKLAKGEPTDRYVGFCMKFVNMLLSHGIKPILVFDGCTLPSKKEVERSRRERRQANLLKGKQLLREGKVSEARECFTRSINITHAMAHKVIKAARSQGVDCLVAPYEADAQLAYLNKAGIVQAIITEDSDLLAFGCKKVILKMDQFGNGLEIDQARLGMCRQLGDVFTEEKFRYMCILSGCDYLSSLRGIGLAKACKVLRLANNPDIVKVIKKIGHYLKMNITVPEDYINGFIRANNTFLYQLVFDPIKRKLIPLNAYEDDVDPETLSYAGQYVDDSIALQIALGNKDINTFEQIDDYNPDTAMPAHSRSHSWDDKTCQKSANVSSIWHRNYSPRPESGTVSDAPQLKENPSTVGVERVISTKGLNLPRKSSIVKRPRSAELSEDDLLSQYSLSFTKKTKKNSSEGNKSLSFSEVFVPDLVNGPTNKKSVSTPPRTRNKFATFLQRKNEESGAVVVPGTRSRFFCSSDSTDCVSNKVSIQPLDETAVTDKENNLHESEYGDQEGKRLVDTDVARNSSDDIPNNHIPGDHIPDKATVFTDEESYSFESSKFTRTISPPTLGTLRSCFSWSGGLGDFSRTPSPSPSTALQQFRRKSDSPTSLPENNMSDVSQLKSEESSDDESHPLREEACSSQSQESGEFSLQSSNASKLSQCSSKDSDSEESDCNIKLLDSQSDQTSKLRLSHFSKKDTPLRNKVPGLYKSSSADSLSTTKIKPLGPARASGLSKKPASIQKRKHHNAENKPGLQIKLNELWKNFGFKKDSEKLPPCKKPLSPVRDNIQLTPEAEEDIFNKPECGRVQRAIFQ [EXO1]” were -0.442 and 0.136.
“MGKVLSKIFGNKEMRILMLGLDAAGKTTILYKLKLGQSVTTIPTVGFNVETVTYKNVKFNVWDVGGQDKIRPLWRHYYTGTQGLIFVVDCADRDRIDEARQELHRIINDREMRDAIILIFANKQDLPDAMKPHEIQEKLGLTRIRDRNWYVQPSCATSGDGLYEGLTWLTSNYKS [ARF6]”: the “solubility in G1/S (log2)” value in the data set with HeLa Kyoto [1] turned out to be 0.0719. The “solubility change mitosis (log2)” value in the data set with HeLa Kyoto [2] was determined as 0.0647.
For the sequence “MGLELYLDLLSQPCRAVYIFAKKNDIPFELRIVDLIKGQHLSDAFAQVNPLKKVPALKDGDFTLTESVAILLYLTRKYKVPDYWYPQDLQARARVDEYLAWQHTTLRRSCLRALWHKVMFPVFLGEPVSPQTLAATLAELDVTLQLLEDKFLQNKAFLTGPHISLADLVAITELMHPVGAGCQVFEGRPKLATWRQRVEAAVGEDLFQEAHEVILKAKDFPPADPTIKQKLMPWVLAMIR [GSTT1]”, the “solubility in G1/S (log2)” value in the data set on HeLa Kyoto [1] stood at 0.038. Also, in the data set with HeLa Kyoto [2], the “solubility change mitosis (log2)” value was -0.295.
In the case of “MGMKVPGKGESGPSALLTPPMSSSSRGPGAGARRRRTRCRRCRACVRTECGDCHFCRDMKKFGGPGRMKQSCLLRQCTAPVLPHTAVCLLCGEAGKEDTVEGEEEKFGLSLMECTICNEIVHPGCLKMGKAEGVINAEIPNCWECPRCTQEGRTSKDSGEGPGRRRADNGEEGASLGSGWKLTEEPPLPPPPPRRKGPLPAGPPPEDVPGPPKRKEREAGNEPPTPRKKVKGGRERHLKKVGGDACLLRGSDPGGPGLLPPRVLNPSQAFSSCHPGLPPENWEKPKPPLASAEGPAVPSPSPQREKLERFKRMCQLLERVPDTSSSSSDSDSDSDSSGTSLSEDEAPGEARNGRRPARGSSGEKENRGGRRAVRPGSGGPLLSWPLGPAPPPRPPQLERHVVRPPPRSPEPDTLPLAAGSDHPLPRAAWLRVFQHLGPRELCICMRVCRTWSRWCYDKRLWPRMDLSRRKSLTPPMLSGVVRRQPRALDLSWTGVSKKQLMWLLNRLQGLQELVLSGCSWLSVSALGSAPLPALRLLDLRWIEDVKDSQLRELLLPPPDTKPGQTESRGRLQGVAELRLAGLELTDASLRLLLRHAPQLSALDLSHCAHVGDPSVHLLTAPTSPLRETLVHLNLAGCHRLTDHCLPLFRRCPRLRRLDLRSCRQLSPEACARLAAAGPPGPFRCPEEKLLLKDS [FBXL19]”, in the data set on HeLa Kyoto [1], the “solubility in G1/S (log2)” value was -0.317. Also, the “solubility change mitosis (log2)” value in the data set on HeLa Kyoto [2] was -0.126.
In the same order, the values of “MGNLESAEGVPGEPPSVPLLLPPGKMPMPEPCELEERFALVLSSMNLPPDKARLLRQYDNEKKWDLICDQERFQVKNPPHTYIQKLQSFLDPSVTRKKFRRRVQESTKVLRELEISLRTNHIGWVREFLNDENKGLDVLVDYLSFAQCSVMFDFEGLESGDDGAFDKLRSWSRSIEDLQPPSALSAPFTNSLARSARQSVLRYSTLPGRRALKNSRLVSQKDDVHVCILCLRAIMNYQYGFNLVMSHPHAVNEIALSLNNKNPRTKALVLELLAAVCLVRGGHEIILAAFDNFKEVCKELHRFEKLMEYFRNEDSNIDFMVACMQFINIVVHSVEDMNFRVHLQYEFTKLGLEEFLQKSRHTESEKLQVQIQAYLDNVFDVGGLLEDAETKNVALEKVEELEEHVSHLTEKLLDLENENMMRVAELEKQLLQREKELESIKETYENTSHQVHTLRRLIKEKEEAFQRRCHLEPNVRGLESVDSEALARVGPAELSEGMPPSDLDLLAPAPPPEEVLPLPPPPAPPLPPPPPPLPDKCPPAPPLPGAAPSVVLTVGLSAIRIKKPIKTKFRLPVFNWTALKPNQISGTVFSELDDEKILEDLDLDKFEELFKTKAQGPALDLICSKNKTAQKAASKVTLLEANRAKNLAITLRKAGRSAEEICRAIHTFDLQTLPVDFVECLMRFLPTEAEVKLLRQYERERQPLEELAAEDRFMLLFSKVERLTQRMAGMAFLGNFQDNLQMLTPQLNAIIAASASVKSSQKLKQMLEIILALGNYMNSSKRGAVYGFKLQSLDLLLDTKSTDRKMTLLHFIALTVKEKYPDLANFWHELHFVEKAAAVSLENVLLDVKELGRGMELIRRECSIHDNSVLRNFLSTNEGKLDKLQRDAKTAEEAYNAVVRYFGESPKTTPPSVFFPVFVRFIRSYKEAEQENEARKKQEEVMREKQLAQEAKKLDAKTPSQRNKWQQQELIAELRRRQAKEHRPVYEGKDGTIEDIITVLKSVPFTARTAKRGSRFFCDAAHHDESNC [FMNL3]” are -0.31 and 0.267.
Taken in the same sequence, the figures for “MGRGLLRGLWPLHIVLWTRIASTIPPHVQKSVNNDMIVTDNNGAVKFPQLCKFCDVRFSTCDNQKSCMSNCSITSICEKPQEVCVAVWRKNDENITLETVCHDPKLPYHDFILEDAASPKCIMKEKKKPGETFFMCSCSSDECNDNIIFSEEYNTSNPDLLLVIFQVTGISLLPPLGVAISVIIIFYCYRVNRQQKLSSTWETGKTRKLMEFSEHCAIILEDDRSDISSTCANNINHNTELLPIELDTLVGKGRFAEVYKAKLKQNTSEQFETVAVKIFPYEEYASWKTEKDIFSDINLKHENILQFLTAEERKTELGKQYWLITAFHAKGNLQEYLTRHVISWEDLRKLGSSLARGIAHLHSDHTPCGRPKMPIVHRDLKSSNILVKNDLTCCLCDFGLSLRLDPTLSVDDLANSGQVGTARYMAPEVLESRMNLENVESFKQTDVYSMALVLWEMTSRCNAVGEVKDYEPPFGSKVREHPCVESMKDNVLRDRGRPEIPSFWLNHQGIQMVCETLTECWDHDPEARLTAQCVAERFSELEHLDRLSGRSCSEEKIPEDGSLNTTK [TGFBR2]” were -0.228 and -0.067.
In the same order, the values of “MGSLSGLRLAAGSCFRLCERDVSSSLRLTRSSDLKRINGFCTKPQESPGAPSRTYNRVPLHKPTDWQKKILIWSGRFKKEDEIPETVSLEMLDAAKNKMRVKISYLMIALTVVGCIFMVIEGKKAAQRHETLTSLNLEKKARLKEEAAMKAKTE [FAM162A]” are 0.312 and 0.327.
Turning to “MGVALRKLTQWTAAGHGTGILEITPLNEAILKEIIVFVESFIYKHPQEAKFVFVEPLEWNTSLAPSAFESGYVVSETTVKSEEVDKNGQPLLFLSVPQIKIRSFGQLSRLLLIAKTGKLKEAQACVEANRDPIVKILGSDYNTMKENSIALNILGKITRDDDPESEIKMKIAMLLKQLDLHLLNHSLKHISLEISLSPMTVKKDIELLKRFSGKGNQTVLESIEYTSDYEFSNGCRAPPWRQIRGEICYVLVKPHDGETLCITCSAGGVFLNGGKTDDEGDVNYERKGSIYKNLVTFLREKSPKFSENMSKLGISFSEDQQKEKDQLGKAPKKEEAAALRKDISGSDKRSLEKNQINFWRNQMTKRWEPSLNWKTTVNYKGKGSAKEIQEDKHTGKLEKPRPSVSHGRAQLLRKSAEKIEETVSDSSSESEEDEEPPDHRQEASADLPSEYWQIQKLVKYLKGGNQTATVIALCSMRDFSLAQETCQLAIRDVGGLEVLINLLETDEVKCKIGSLKILKEISHNPQIRQNIVDLGGLPIMVNILDSPHKSLKCLAAETIANVAKFKRARRVVRQHGGITKLVALLDCAHDSTKPAQSSLYEARDVEVARCGALALWSCSKSHTNKEAIRKAGGIPLLARLLKTSHENMLIPVVGTLQECASEENYRAAIKAERIIENLVKNLNSENEQLQEHCAMAIYQCAEDKETRDLVRLHGGLKPLASLLNNTDNKERLAAVTGAIWKCSISKENVTKFREYKAIETLVGLLTDQPEEVLVNVVGALGECCQERENRVIVRKCGGIQPLVNLLVGINQALLVNVTKAVGACAVEPESMMIIDRLDGVRLLWSLLKNPHPDVKASAAWALCPCIKNAKDAGEMVRSFVGGLELIVNLLKSDNKEVLASVCAAITNIAKDQENLAVITDHGVVPLLSKLANTNNNKLRHHLAEAISRCCMWGRNRVAFGEHKAVAPLVRYLKSNDTNVHRATAQALYQLSEDADNCITMHENGAVKLLLDMVGSPDQDLQEAAAGCISNIRRLALATEKARYT [ARMC4]”, the “solubility in G1/S (log2)” value in the data set with HeLa Kyoto [1] was 0.0866. Also, in the data set with HeLa Kyoto [2], the “solubility change mitosis (log2)” value was 0.00126.
